Data set [1] has as its system E. coli B. Description: Bactericidal assay, E. coli B. The format is cell-based. The protocol:
(§1) The synthetically produced peptides were assayed for bactericidal activity against Pseudomonas aeruginosa, type 1, P. cepacia ATCC 25608, E. coli B, and Staphylococcus aureus 502A by standard methods.
(§2) Pseudomonas aeruginosa type 1 is a clinical isolate maintained in the laboratory since 1972. The isolate remains a smooth strain and was serotyped by the scheme of Homma. Homma, Jpn. J. Exp. Med., 46:329 (1976). A rough strain E. coli B and S. aureus 502A were obtained from Paul Quie, University of Minnesota. The characteristics of the S. aureus strain have been described in Shinefield et al., Amer. J. Dis. Chil., 105:646 (1963). Pseudomonas cepacia ATCC 25608 was purchased from the American Type Culture Collection in 1980. S. aureus and E. coli were maintained on nutrient agar plates and the Pseudomonas strains were maintained on blood agar plates.
(§3) Pyrogen-free solutions were used throughout this assay and all methods which follow. Log phase bacteria were prepared from a culture in brain heart infusion broth as previously described except that bacteria were washed and resuspended in saline with adjustment to an optical density at 650 nm which would yield 3×10^8 CFU/ml. Bacteria were then diluted 1:10 in 0.08M citrate phosphate buffer, pH 5.6 or pH 7.0, for use in the assay. S. aureus rapidly lost viability in the pH 5.6 buffer and was studied only at pH 7.0. Bactericidal activity was determined by dose response and where an LD50 is indicated, it was determined by linear regression.

In data set [2] the test system is Pseudomonas aeruginosa type 1. The format is cell-based. As to conditions: for % Killing of 5 × 10^6 Bacteria: P. aeruginosa. On the procedure:
Bactericidal activity can be evaluated against a variety of bacteria such as Pseudomonas spp including aeruginosa and P. cepacia, E. coli B, and Staphylococcus aureus. The preferred organism is P. aeruginosa. Bactericidal activity is determined by identifying the effective dose for killing as the molar concentration of the peptide which results in at least a 60% killing of the bacteria, as determined by standard methods. Preferably, the peptide has an effective dose at a concentration of about 1×10^-4 M to about 1×10^-10 M, and more preferably 1×10^-7 M to 1×10^-9M . […] The effective dose for bactericidal activity of B/PI is seen at about […] . Bactericidal activity can also be determined by calculating a lethal dose 50 (LD50) using standard methods. The LD50 is that amount of peptide or protein that kills 50% of the bacteria when measured using standard dose response methods. A bactericidal peptide preferably has an LD50 of about 10^-4 M to about 10^-9 M , more preferably about 10^-7 to 10^-9 M .
as §1, §2, §3

The subject of data set [3] is Staphylococcus aureus 502A. Type of data set: cell-based. Conditions: S. aureus; pH 7.0; 4.1 × 10^-9 M. On the procedure: as §1, §2, §3
Data set [4] deals with E. coli 055: B5 LPS. The data set is described as follows: Limulus amoebocyte lysate assay, neutralization of endotoxin. Type of data set: biochemical. The source says: The peptide selected can also have endotoxin neutralizing activity. […] Endotoxin neutralizing activity can also be measured by calculating an inhibitory dose 50 […] using standard does response methods. An inhibitory dose 50 is that amount of peptide that can inhibit 50% of the activity of endotoxin. Endotoxin activity can also be measured by determining the amount of release of tumor necrosis factor alpha (TNFα) from a macrophage cell line or by evaluating the symptoms of shock in animals. Peptides preferably neutralized endotoxin at a molar concentration of about 1×10^-4 M to about 10^-8 M , more preferably about 10^-5 M to about 10^-6 M .
The ability of synthetic peptides to neutralize endotoxin was detected with the E-TOXATE kit manufactured by Sigma Chemicals, St. Louis, Mo. […] Peptide was incubated with LPS at room temperature for 10 minutes in 100 μl of a 1:2 dilution of pyrogen-free saline, pH 6.4. The reaction was started by addition of 100 μl of amoebocyte lysate and the final volume was 200 μl.
^a The dose of peptide required to inhibit clotting of LAL by 100%.
Each tube contained 0.04 endotoxin units of E. coli LPS.

Data set [5] in a line: Storage stability of bactericidal activity of B/PI in elution buffer. Type of data set: physicochemical. As to conditions: 0.05M glycine buffer, pH 2.5, with 0.5M NaCl; 4° C. and -70° C.; prolonged periods. On the procedure: Recombinant products can be purified from infected cells by immunoaffinity chromatography with the appropriate immobilized rabbit anti-peptide antibody or a mouse monoclonal antibody to B/PI. B/PI was reproducibly purified by application of partially purified samples of 2 mg protein to a 1.5×180 cm Toyopearl HW55S (Toso Haas) column or 200 mg protein to a TSX2000 HPLC (Beckman) column. The elution buffer for both columns is 0.05M glycine buffer, pH 2.5, with 0.5M NaCl. Recovery of B/PI protein was excellent and 100% of bactericidal activity is retained. The bactericidal activity of B/PI in this buffer was stable at 4° C. and at -70° C. for prolonged periods. The columns resolve protein standards over the range of 2-70 kD and can be used for all steps separation of fragments of B/PI by molecular weight. Reverse phase HPLC can be used if necessary.

The subject of data set [6] is P. cepacia ATCC 25608. Description: Bactericidal assay, P. cepacia. The format is cell-based, Pseudomonas cepacia. As to conditions: for % Killing of 5 × 10^6 Bacteria: P. cepacia, 4.1 × 10^-9 M. On the procedure: as §1, §2, §3
Where [7] appears, read: Table 7, dose required to inhibit clotting of LAL by 100%, 0.04 endotoxin units of E. coli LPS.

“Also recorded” adds a separate entry of the source. Read-outs that look alike come from different tables or passages of the source.

B1: B/PI: 55 kD bactericidal/permeability increasing protein purified from human neutrophil granules (protein)
chain: MRENMARGPCNAPRWVSLMVLVAIGTAVTAAVNPGVVVRISQKGLDYASQQGTAALQKELKRIKIPDYSDSFKIKHLGKGHYSFYSMDIREFQLPSSQISMVPNVGLKFSISNANIKISGKWKAQKRFLKMSGNFDLSIEGMSISADLKLGSNPTSGKPTITCSSCSSHINSVHVHISKSKVGWLIQLFHKKIESALRNKMNSQVCEKVTNSVSSKLQPYFQTLPVMTKIDSVAGINYGLVAPPATTAETLDVQMKGEFYSENHHNPPPFAPPVMEFPAAHDRMVYLGLSDYFFNTAGLVYQEAGVLKMTLRDDMIPKESKFRLTTKFFGTFLPEVAKKFPNMKIQIHVSASTPPHLSVQPTGLTFYPAVDVQAFAVLPNSSLASLFLIGMHTTGSMEVSAESNRLVGELRLDRLLLQLKHSNIGPFPVELLQDIMNYIVPILVLPRVNEKLQKGFPLPTPARVQLYNVVLQPHQNFLLFGADVVYK
As for B1, the “% Killing of 5 × 10^6 Bacteria” value was 71% in data set [1] (E. coli B, pH 5.6, 5.5 × 10^-9 M); 35 ± 4% in data set [1] (E. coli, pH 5.6, 4.1 × 10^-9 M); 25 ± 5% in data set [1] (E. coli, pH 7.0, 4.1 × 10^-9 M); 50 ± 5% in data set [2] (pH 5.6, 4.1 × 10^-9 M); 87 ± 8% in data set [2] (pH 5.6, 5.5 × 10^-9 M); 35 ± 3% in data set [2] (pH 7.0, 4.1 × 10^-9 M). Besides, the “% Killing of 5 × 10^6 Bacteria” value in data set [3], in data set [6] (pH 5.6) and in data set [6] (pH 7.0) was 0% throughout. Further, in data set [2] (5×10^6 CFU, pH 5.6, dose response, linear regression), the “LD50 for P. aeruginosa” value is 3.4 nM. The “peptide concentration which neutralized endotoxin (100% inhibition of LPS-induced gelation)” value in data set [4] (0.04 endotoxin units of E. coli 055: B5 LPS) is reported as “about 10^-8 M”. The “Effective Dose (μg/0.2 ml)” value in data set [4] (setting [7]) turned out to be 0.165 μg/0.2 ml. The “Effective Dose M (× 10^-4)” value in data set [4] (setting [7]) is recorded as 0.00015 M (× 10^-4). Besides, the “stability of bactericidal activity on storage” value in data set [5] is reported as “stable”. Further, in data set [6] (concentration 20fold higher: 9.1×10^-8 M, approximately 5 μg protein/ml), the “killing of P. cepacia (in words)” value is recorded as “not killed; also recorded: resisted bactericidal activity”.
